Consider four molecules from publication PMC6377645, “Structural insights into chaperone addiction of toxin-antitoxin systems” (Nature Communications, 2019).

B2: ChAD peptide, Mtb-HigA1(104-116) (peptide)
peptide: EVPTWHRLSSYRG
notes: residues 104-116 of the antitoxin Mtb-HigA1 of Mycobacterium tuberculosis (chaperone addiction region); also called C4; 13-mer ChAD peptide
B3: Mtb-SecB^TA chaperone (Rv1957), His6-tag removed (natural protein)
chain: MTDRTDADDLDLQRVGARLAARAQIRDIRLLRTQAAVHRAPKPAQGLTYDLEFEPAVDADPATISAFVVRISCHLRIQNQAADDDVKEGDTKDETQDVATADFEFAALFDYHLQEGEDDPTEEELTAYAATTGRFALYPYIREYVYDLTGRLALPPLTLEILSRPMPVSPGAQWPATRGTP
notes: SecB-like chaperone Mtb-SecB^TA (Rv1957) of Mycobacterium tuberculosis, 181 amino acids; untagged mass printed as 20,388 Da; Residues of the pET15b vector may remain after thrombin cleavage (surmised from the printed mass); For MST the protein was labelled with the dye NT-647; also called SecB-like chaperone; TA-associated SecB chaperone; not shown: His6, N-terminal, cleaved

For series [1], the target named is B3. In words: native MS; Mtb-SecB^TA/HigA1 9.7 µM (hexamer) in 200 mM ammonium acetate pH 7, with 0 to 16 ChAD peptide molecules per hexamer. Conditions: both partners purified.
The target of series [2] is B3. As to the kind of experiment: SEC-MALS; Superdex 200 Increase 5/150; 20 mM MES, 200 mM NaCl, pH 6.5; 15 °C; Mtb-SecB^TA 49.1 µM, Mtb-SecB^TA/HigA1 6.5 µM, Mtb-HigA1^ΔC42 100 µM. Conditions: both partners purified.
Series [3] deals with the molecule itself. The description is as above.
For series [4], the target named is B3. As to the kind of experiment: ITC; ChAD peptide (80-620 µM) injected into Mtb-SecB^TA (18-48 µM) in the cell; 12 °C; 20 mM MES, 200 mM NaCl, pH 6.5; one set of sites; Kd and enthalpy printed once for direct and reverse conditions. Conditions: both partners purified.
Series [5] has as its target B3. In words: MST; 100 nM NT-647-labelled Mtb-SecB^TA with 3 nM to 100 µM ChAD peptide; 20 mM MES, 200 mM NaCl, 0.025% Tween 20, pH 6.5; 22 °C. Conditions: both partners purified.
Series [6] deals with B3. As to the kind of experiment: native MS; Mtb-SecB^TA 11.8 µM (tetramer) in 200 mM ammonium acetate pH 7, titrated with ChAD peptide at molar ratios 0 to 20 per tetramer; control peptides C2, C3, C7 at 8 peptides per tetramer; Kd fitted with UniDec, 4 sites, all KD's free. Conditions: both partners purified.
Series [7] has as its target B2. As to the kind of experiment: ITC; reverse conditions (protocol of the reverse titration not described); 12 °C; 20 mM MES, 200 mM NaCl, pH 6.5. Conditions: both partners purified.
The series “SEC-MALS” concerns the molecule itself. As to the kind of experiment: SEC-MALS.

“And” between values parts separate entries of the source, which are not always exact repeats. Equal entries are not always repeated.

B1: Mtb-HigA1 antitoxin, full length, untagged (natural protein)
chain: MSIDFPLGDDLAGYIAEAIAADPSFKGTLEDAEEARRLVDALIALRKHCQLSQVEVAKRMGVRQPTVSGFEKEPSDPKLSTLQRYARALDARLRLVLEVPTLREVPTWHRLSSYRGSARDHQVRVGADKEILMQTNWARHISVRQVEVA
notes: antitoxin HigA1 of the TAC system of Mycobacterium tuberculosis, untagged; Obtained only in complex with Mtb-SecB^TA (4:2 hetero-hexamer); also called TAC antitoxin
Consider B1, for which the results for the “stoichiometry N” value in series [1], in series [2] and in series [3] were 0.5 HigA1 chains per SecB^TA chain (printed as 4:2 Mtb-SecB^TA/HigA1), 0.5 HigA1 chains per SecB^TA chain (printed as 4:2 chaperone/antitoxin) and 2, respectively.
As to B2, in series [4], the Kd worked out at 1900 ± 200 nM, the dH is -12 kcal/mol and the “stoichiometry N” value came to 0.47. Also, binding in series [5] was put at a Kd of 2600 ± 600 nM. Also, in series [6], the “Kd of the single binding events (four sites fitted, all KD's free)” value was 6000 to 17000 nM and the “stoichiometry N” value is no more than 4 peptides per tetramer.
With B3, the “stoichiometry N” value was determined as 2.2 in series [7] and 4 in series [3].

B4: Mtb-SecB^TA with a N-terminal His6-tag (before thrombin cleavage) (natural protein)
chain: MTDRTDADDLDLQRVGARLAARAQIRDIRLLRTQAAVHRAPKPAQGLTYDLEFEPAVDADPATISAFVVRISCHLRIQNQAADDDVKEGDTKDETQDVATADFEFAALFDYHLQEGEDDPTEEELTAYAATTGRFALYPYIREYVYDLTGRLALPPLTLEILSRPMPVSPGAQWPATRGTP
notes: SecB-like chaperone Mtb-SecB^TA (Rv1957) of Mycobacterium tuberculosis, 181 amino acids; also called His6-Mtb-SecB^TA; not shown: His6, N-terminal, kept
Consider B4, for which the “stoichiometry N” value in “SEC-MALS” is 8 and 4.
